Where no end group is shown, it is not given here.

The values that follow come from patent US20250376534A1 (ORNA THERAPEUTICS, published 2025).

The target of assay [1] is T1, BCMA-41BBζ CAR encoded by circular RNA formed from DNA Template A.
T1 construct: also called Construct A
Nature of the assay: flow cytometry, live T cells 24 h after electroporation with 50 ng circRNA per 0.1x10^6 T cells; first of two values. From the text:
(§1) Donor T cells were thawed and activated with anti-CD3/CD28 solutions. Three days after activation, the cells were washed. […] Circular RNAs were formed from DNA templates present in Table 28 and/or 30. The cells were given a commercially available soluble BCMA detection reagent containing R-phycoerythrin (PE) fluorophore (e.g., from AcroBiosystems, Delaware), anti-Whitlow PE detection reagent, or anti-G4S linker detection reagent (e.g., G4S-AF647).
(In general: Flow cytometry measures light scatter and fluorescence of single cells or particles in a stream.)

Assay [2] has as its target T2, CD19-CD28ζ CAR encoded by circular RNA formed from DNA Template F.
T2 construct: also called Construct F
The assay is described as above.
Source text: as §1

Assay [3] concerns the target T3, BCMA CAR encoded by circular RNA formed from DNA Template G.
T3 construct: also called Construct G
Described as above.
Source text: as §1

For assay [4], the target named is T4, BCMA CAR encoded by circular RNA formed from DNA Template H.
T4 construct: also called Construct H
T4 sequence (chain, as listed by the source limits assumed): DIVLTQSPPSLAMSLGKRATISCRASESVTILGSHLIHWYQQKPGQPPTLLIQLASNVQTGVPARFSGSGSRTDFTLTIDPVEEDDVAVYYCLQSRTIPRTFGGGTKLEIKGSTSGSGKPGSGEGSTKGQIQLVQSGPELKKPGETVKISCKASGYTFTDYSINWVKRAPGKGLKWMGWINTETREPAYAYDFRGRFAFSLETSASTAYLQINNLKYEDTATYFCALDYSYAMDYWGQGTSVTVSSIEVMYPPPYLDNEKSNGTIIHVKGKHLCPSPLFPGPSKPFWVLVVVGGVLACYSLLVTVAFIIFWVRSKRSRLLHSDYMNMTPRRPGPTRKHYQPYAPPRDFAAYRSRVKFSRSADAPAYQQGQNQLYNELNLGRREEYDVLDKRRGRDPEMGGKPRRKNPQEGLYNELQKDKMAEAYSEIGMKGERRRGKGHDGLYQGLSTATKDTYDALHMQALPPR
The assay is described as above.
Source text: as §1

Assay [5] concerns the target T5, BCMA CAR encoded by circular RNA formed from DNA Template I.
T5 construct: also called Construct I
The assay is described as above.
Source text: as §1

Assay [6] has as its target T6, BCMA CAR encoded by circular RNA formed from DNA Template J.
T6 construct: also called Construct J
The assay is described as above.
Source text: as §1

The target in assay [7] is T1, BCMA-41BBζ CAR encoded by circular RNA …. Nature of the assay: flow cytometry, live T cells 24 h after electroporation with 50 ng circRNA per 0.1x10^6 T cells; second of two values.
Source text: as §1

For assay [8], the target named is T2, CD19-CD28ζ CAR encoded by circular RNA …. The assay is described as above.
Source text: as §1

Assay [9] has as its target T3, BCMA CAR encoded by circular RNA formed …. The assay is described as above.
Source text: as §1

The target in assay [10] is T4, BCMA CAR encoded by circular RNA formed …. The assay is described as above.
Source text: as §1

In assay [11] the target is T5, BCMA CAR encoded by circular RNA formed …. The assay is described as above.
Source text: as §1

Assay [12] has as its target T6, BCMA CAR encoded by circular RNA formed …. The assay is described as above.
Source text: as §1

T6 sequence (chain, as listed by the source limits assumed): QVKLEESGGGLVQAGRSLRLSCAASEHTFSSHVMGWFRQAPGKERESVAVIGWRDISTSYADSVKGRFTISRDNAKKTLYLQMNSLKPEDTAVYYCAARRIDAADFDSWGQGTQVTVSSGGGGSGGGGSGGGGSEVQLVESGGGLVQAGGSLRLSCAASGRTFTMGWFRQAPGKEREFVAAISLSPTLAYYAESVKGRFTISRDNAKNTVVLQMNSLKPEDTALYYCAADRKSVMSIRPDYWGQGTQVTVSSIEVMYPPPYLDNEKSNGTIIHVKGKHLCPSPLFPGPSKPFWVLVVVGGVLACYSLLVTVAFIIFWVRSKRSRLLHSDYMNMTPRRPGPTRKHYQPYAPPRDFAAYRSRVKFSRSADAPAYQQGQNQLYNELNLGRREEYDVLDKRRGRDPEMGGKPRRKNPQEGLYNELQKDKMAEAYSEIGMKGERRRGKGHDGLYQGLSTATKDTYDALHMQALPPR
T2 sequence (chain, as listed by the source limits assumed): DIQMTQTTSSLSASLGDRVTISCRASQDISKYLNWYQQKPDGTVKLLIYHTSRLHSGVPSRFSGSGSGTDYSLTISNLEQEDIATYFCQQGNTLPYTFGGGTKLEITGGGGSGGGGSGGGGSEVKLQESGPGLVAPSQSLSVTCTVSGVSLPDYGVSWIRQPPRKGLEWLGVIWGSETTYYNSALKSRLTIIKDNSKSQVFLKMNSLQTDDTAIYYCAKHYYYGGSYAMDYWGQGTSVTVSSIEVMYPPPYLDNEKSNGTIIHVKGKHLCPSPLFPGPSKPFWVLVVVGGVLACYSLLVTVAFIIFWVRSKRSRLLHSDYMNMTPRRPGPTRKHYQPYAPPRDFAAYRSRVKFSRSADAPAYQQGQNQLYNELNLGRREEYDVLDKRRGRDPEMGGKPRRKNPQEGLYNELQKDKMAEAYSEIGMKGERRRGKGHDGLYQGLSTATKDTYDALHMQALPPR
T3 sequence (chain, as listed by the source limits assumed): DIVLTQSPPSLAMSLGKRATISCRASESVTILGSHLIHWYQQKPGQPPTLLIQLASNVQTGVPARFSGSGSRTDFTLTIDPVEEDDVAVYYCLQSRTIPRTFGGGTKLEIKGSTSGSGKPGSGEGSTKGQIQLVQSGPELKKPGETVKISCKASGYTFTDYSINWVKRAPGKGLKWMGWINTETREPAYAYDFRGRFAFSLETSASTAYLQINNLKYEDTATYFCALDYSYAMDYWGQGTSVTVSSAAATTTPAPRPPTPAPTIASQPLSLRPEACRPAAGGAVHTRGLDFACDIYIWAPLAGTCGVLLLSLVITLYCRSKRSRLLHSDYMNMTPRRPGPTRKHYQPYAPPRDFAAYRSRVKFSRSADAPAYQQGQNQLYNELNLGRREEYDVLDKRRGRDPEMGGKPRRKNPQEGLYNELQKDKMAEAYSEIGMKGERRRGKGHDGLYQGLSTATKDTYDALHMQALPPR
T1 sequence (chain, as listed by the source): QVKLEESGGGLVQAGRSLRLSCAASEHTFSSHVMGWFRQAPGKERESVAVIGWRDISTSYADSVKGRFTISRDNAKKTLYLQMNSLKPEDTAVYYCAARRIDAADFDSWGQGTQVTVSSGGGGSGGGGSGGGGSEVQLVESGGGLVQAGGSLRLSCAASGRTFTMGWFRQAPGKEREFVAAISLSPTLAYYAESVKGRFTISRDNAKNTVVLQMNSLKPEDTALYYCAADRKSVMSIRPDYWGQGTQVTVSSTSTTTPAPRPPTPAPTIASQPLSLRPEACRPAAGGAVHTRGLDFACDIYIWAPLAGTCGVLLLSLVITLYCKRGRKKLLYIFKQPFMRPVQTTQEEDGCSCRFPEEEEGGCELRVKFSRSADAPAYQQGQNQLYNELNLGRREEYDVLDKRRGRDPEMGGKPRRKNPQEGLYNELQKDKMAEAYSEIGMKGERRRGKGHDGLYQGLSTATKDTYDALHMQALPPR
T5 sequence (chain, as listed by the source limits assumed): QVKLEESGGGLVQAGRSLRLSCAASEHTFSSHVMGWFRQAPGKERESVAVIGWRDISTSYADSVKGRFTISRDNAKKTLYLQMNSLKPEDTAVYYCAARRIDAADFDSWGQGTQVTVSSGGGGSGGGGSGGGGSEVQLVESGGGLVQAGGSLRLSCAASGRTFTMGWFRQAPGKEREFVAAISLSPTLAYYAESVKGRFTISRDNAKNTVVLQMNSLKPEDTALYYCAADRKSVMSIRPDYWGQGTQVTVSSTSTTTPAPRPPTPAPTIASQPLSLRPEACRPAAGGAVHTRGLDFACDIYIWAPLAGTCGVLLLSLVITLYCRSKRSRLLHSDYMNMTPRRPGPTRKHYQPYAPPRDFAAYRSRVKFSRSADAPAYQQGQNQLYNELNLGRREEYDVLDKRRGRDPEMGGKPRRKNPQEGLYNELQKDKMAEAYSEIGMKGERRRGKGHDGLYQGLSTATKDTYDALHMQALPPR

B1: soluble BCMA detection reagent containing R-phycoerythrin (PE) fluorophore (receptor, UniProt Q02223 1-54, looked up)
chain: MLQMAGQCSQNEYFDSLLHACIPCQLRCSSNTPPLTCQRYCNASVTNSVKGTNA
modifications: cysteine pairing not given here; also: conjugated to R-phycoerythrin (PE) fluorophore, site not given here
notes: also called soluble BCMA-PE; sBCMA-PE
Take B1: the gMFI in [1] worked out at 61500; in assay [2], 71.7; in assay [3] it was 18200; in assay [4] it was 57800; in [5], 57400; in [6], 84700. Further, the gMFI in assay [7] came out at 66300; in assay [8] it was 81.5; in [9], 18900; in [10] it was 59700; in assay [11], 58000; in assay [12] it was 93400.
